According to PMC7893820:

Biological target: mGFP-tagged N-RasG12V (UniProt P01111)
Assay: FRET or BRET; FLIM-FRET in fixed HEK293 EBNA cells co-transfected with donor mGFP-NRasG12V and acceptor mCherry-PDE6δ plasmids (1:3); apparent FRET efficiency from the donor's lifetime; cells with scrambled siRNA in 0.1% DMSO (control), ICMT siRNA, or 2.5 μM deltarasin for 24 h

Sequence of mGFP-tagged N-RasG12V (P01111 whole entry G12V): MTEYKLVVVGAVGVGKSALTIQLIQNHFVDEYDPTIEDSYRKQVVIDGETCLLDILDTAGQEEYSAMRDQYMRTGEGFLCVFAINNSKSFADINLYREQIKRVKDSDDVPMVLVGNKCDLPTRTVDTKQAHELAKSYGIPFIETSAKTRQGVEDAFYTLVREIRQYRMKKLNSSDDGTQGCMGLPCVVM
Sequence of mCherry-tagged PDE6δ (O43924 whole entry, stated change not applied): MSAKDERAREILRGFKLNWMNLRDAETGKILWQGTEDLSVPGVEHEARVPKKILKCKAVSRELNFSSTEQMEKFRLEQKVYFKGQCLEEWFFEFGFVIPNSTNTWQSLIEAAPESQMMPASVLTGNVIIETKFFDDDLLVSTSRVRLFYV

reduction of FRET efficiency with 2.5 μM deltarasin: 50%
Substance: mCherry-tagged PDE6δ (from UniProt O43924 1-150) (natural protein)
